The source of these data is patent US20260274958A1.

The test concerns the target VEGF-Fc (in house made by ImmuneOnco).

VEGF-Fc (in house made by ImmuneOnco), sequence (chain, as listed by the source limits assumed): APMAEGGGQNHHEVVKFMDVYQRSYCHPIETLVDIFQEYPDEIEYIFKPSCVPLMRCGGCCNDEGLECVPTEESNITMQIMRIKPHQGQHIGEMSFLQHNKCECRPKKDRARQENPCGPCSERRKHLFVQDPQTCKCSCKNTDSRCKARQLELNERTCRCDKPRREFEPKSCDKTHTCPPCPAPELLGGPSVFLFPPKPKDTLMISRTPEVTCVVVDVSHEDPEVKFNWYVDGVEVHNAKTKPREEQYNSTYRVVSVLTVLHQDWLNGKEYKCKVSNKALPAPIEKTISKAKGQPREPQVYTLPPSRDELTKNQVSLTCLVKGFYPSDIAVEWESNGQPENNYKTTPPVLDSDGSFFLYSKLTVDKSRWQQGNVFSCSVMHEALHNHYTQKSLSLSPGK

The substance VEGFR1D2-Fc (Fc fusion) came in with an IC50 of inhibition of VEGF-Fc induced CD69 expression (MFI) on Jurkat-CVR cells of 2.38 nM.
